Biological target: T1, CAMTA3 CG-1 WT (Arabidopsis thaliana, UniProt Q8GSA7 1-153)
T1 sequence: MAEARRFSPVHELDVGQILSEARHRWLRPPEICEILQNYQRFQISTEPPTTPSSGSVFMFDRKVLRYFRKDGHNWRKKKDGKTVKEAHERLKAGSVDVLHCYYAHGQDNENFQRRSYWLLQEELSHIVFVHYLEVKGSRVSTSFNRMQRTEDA
Assay: EMSA; complex detected from 25 ng protein, good binding at 50 ng or more; 20 fmol probe; reduced by unlabeled PDF1.4 competitor; 1X LightShift EMSA binding buffer, 50 ng/ul poly(dI-dC), 20 fmol probe in 20 ul, +/- 4 pmol unlabeled DNA, room temperature 30 min; 5% native PAGE, 0.5X TBE; pH and salt not given
Conditions: protein: recombinant; tags: His (pET28a); label: 3'-biotin on strand 1; blunt

B1: PDF1.4 promoter probe (dsDNA)
DNA 1: CGTGAAAGTCACGCGCCAAGAACAAA
DNA 2: TTTGTTCTTGGCGCGTGACTTTCACG
B1: binds.

Source: PMC10417383, “DNA-Binding Activity of CAMTA3 Is Essential for Its Function: Identification of Critical Amino Acids for Its Transcriptional Activity”
